According to the supplement of paper PMC7877785:
± gives the uncertainty stated by the source.

Assay: self-splicing fitness, log relative to wild type (ln ratio); higher = more splicing; Tetrahymena group I intron in knt gene, E. coli kanamycin selection, DiMSum; sequences stand for … in CUCUCU…GGAGGGAAAAGUUAUCAGGCAUGCACCUGGUAGCUAGUCUUUAAACCAAUAGAUUGCAUCGGUUUAAAAGGCAAGACCGUCAAAUUGCGGGAAAGGGGUCAACAGCCGUUCAGUACCAAGUCUCAGGGGAAACUUUGAGAUGGCCUUGCAAAGGGUAUGGUAAUAAGCUGACGGACAUGGUCCUAACCACGCAGCCAAGUCCUAAGUCAACAGAUCUUCUGUUGAUAUGGAUGCAGUUCACAGACUAAAUGUCGGUCGGGGAAGAUGUAUUCUUCUCAUAAGAUAUAGUCGGACCUCUCCUUAAUGGGAGCUAGCGGAUGAAGUGAUGCAACACUGGAGCCGCUGGGAACUAAUUUGUAUGCGAAAGUAUAUUGAUUAGUUUUGGAGUACUCGUGGUCG
Method in brief: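 Colonies from six replicate transformations of E. coli BL21(DE3) were pooled and amplicon-sequenced on an Illumina HiSeq 2500. The library placed an intron with all eight P1ex-region nucleotides randomised inside the knt kanamycin-resistance gene on pET-22b(+), and cells grew overnight at 37°C or 30°C on LB agar with or without 25 μg/mL kanamycin (plus 100 μg/mL carbenicillin, 50 μM IPTG, 0.2% rhamnose). Fitness is the DiMSum error-weighted combination of wild-type-normalised replicate fold changes, kanamycin versus none.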

| Sequence | self-splicing fitness (ln) (30 °C) | self-splicing fitness (ln) (37 °C) |
| --- | --- | --- |
| UUAGAGCAAUAUUACGCGAA | -0.809 ± 0.14 | -0.155 ± 0.18 |
| GGCCAGCAAUAUUACGGGCA | -1.06 ± 0.07 | -0.314 ± 0.079 |
| GGGAAGCAAUAUUACGAGGG | -4.09 ± 0.24 | -2.67 ± 0.19 |
| CGGUAGCAAUAUUACGGCCC | -0.507 ± 0.2 | 0.668 ± 0.37 |
| CGGGAGCAAUAUUACGCAAA |  | -2.01 ± 0.35 |
| GAGUAGCAAUAUUACGGCAU | -0.177 ± 0.089 | 0.37 ± 0.11 |
| CUGUAGCAAUAUUACGGAGA | -2.5 ± 0.21 | -3.56 ± 0.34 |
| CAUAAGCAAUAUUACGCGUA | -1.76 ± 0.11 | -2.02 ± 0.16 |
| GCAGAGCAAUAUUACGCCUA |  | -2.09 ± 0.3 |
| ACUAAGCAAUAUUACGCCGA | -1.86 ± 0.18 | -0.197 ± 0.16 |
| GUCCAGCAAUAUUACGAAGU | -0.504 ± 0.074 | 0.0552 ± 0.11 |
| AAUCAGCAAUAUUACGUAUA | -0.574 ± 0.066 | 0.0946 ± 0.087 |
| GGACAGCAAUAUUACGUGCU | -0.778 ± 0.11 | -0.685 ± 0.13 |
| GAGGAGCAAUAUUACGCGGA | -3.27 ± 0.4 | -2.76 ± 0.41 |
| CCGAAGCAAUAUUACGUGAC |  | -1.4 ± 0.2 |
| GAGCAGCAAUAUUACGUAGA | -2.24 ± 0.1 | -1.03 ± 0.13 |
| CCGGAGCAAUAUUACGGGGC | -3.78 ± 0.26 | -2.55 ± 0.44 |
| CGCCAGCAAUAUUACGGGGU | -3.35 ± 0.15 | -2.36 ± 0.17 |
| CCUGAGCAAUAUUACGGUUG | -3.44 ± 0.13 | -1.3 ± 0.1 |
| CUGCAGCAAUAUUACGGUGA | -2.37 ± 0.12 | -0.923 ± 0.099 |
| CACUAGCAAUAUUACGGUCA | -0.522 ± 0.092 | -0.198 ± 0.12 |
| UUUAAGCAAUAUUACGUGCA | -1.06 ± 0.12 | -0.0552 ± 0.15 |
| GGAAAGCAAUAUUACGCUCU | -3.11 ± 0.33 |  |
| ACGAAGCAAUAUUACGUUCU | -1.24 ± 0.07 | -0.898 ± 0.081 |
| CAUUAGCAAUAUUACGUACU | -3.11 ± 0.18 | -1.8 ± 0.15 |
| ACGGAGCAAUAUUACGAACG | -2.54 ± 0.16 | -0.693 ± 0.16 |
| CAUUAGCAAUAUUACGGGAC | -3.64 ± 0.27 | -2.31 ± 0.25 |

| Sequence | self-splicing fitness (ln) (30 °C) | self-splicing fitness (ln) (37 °C) |
| --- | --- | --- |
| UCUGAGCAAUAUUACGCGCA | -2.16 ± 0.3 |  |
| AAAAAGCAAUAUUACGCCGG | -1.62 ± 0.11 | 0.057 ± 0.12 |
| CCUCAGCAAUAUUACGUUAU | -3.74 ± 0.17 | -2.49 ± 0.17 |
| UGACAGCAAUAUUACGCAAA | -2.27 ± 0.18 | -1.73 ± 0.2 |
| AGGGAGCAAUAUUACGAUAA |  | -2.23 ± 0.42 |
| AACGAGCAAUAUUACGUAUA | -2.83 ± 0.19 | -2.34 ± 0.27 |
| GACCAGCAAUAUUACGUGCU | -2.85 ± 0.12 | -2.63 ± 0.21 |
| CACAAGCAAUAUUACGUUGG | -2.5 ± 0.091 | -1.76 ± 0.099 |
| GUUUAGCAAUAUUACGUGAA | -1.35 ± 0.12 | -2.04 ± 0.18 |
| GACUAGCAAUAUUACGUGGU | -3.39 ± 0.13 | -2.73 ± 0.15 |
| GCACAGCAAUAUUACGAGUU | -1.81 ± 0.057 | -0.499 ± 0.072 |
| CGAGAGCAAUAUUACGACGC | -1.91 ± 0.42 |  |
| UCCGAGCAAUAUUACGUUGG | -3.33 ± 0.21 | -1.78 ± 0.24 |
| CAGGAGCAAUAUUACGUUCA | -2.89 ± 0.12 | -3.54 ± 0.2 |
| GGUUAGCAAUAUUACGCUUA | -1.58 ± 0.13 | -0.641 ± 0.12 |
| UCAAAGCAAUAUUACGAGUG | -0.846 ± 0.048 | -0.965 ± 0.067 |
| GCGCAGCAAUAUUACGUUAG | -4.26 ± 0.2 | -2.26 ± 0.18 |
| ACCCAGCAAUAUUACGAUUC | -1.71 ± 0.046 | -0.7 ± 0.063 |
| UUGAAGCAAUAUUACGAGUG | -0.347 ± 0.055 | -0.22 ± 0.077 |
| UGAGAGCAAUAUUACGAGUA | -2.37 ± 0.49 | -2.16 ± 0.46 |
| GAGCAGCAAUAUUACGACUG | -1.75 ± 0.11 | -2.01 ± 0.18 |
| CUCCAGCAAUAUUACGACCA |  | -1.37 ± 0.41 |
| GACAAGCAAUAUUACGGGUC | -3.73 ± 0.19 | -3.15 ± 0.28 |
| AAUAAGCAAUAUUACGAUUG | -2.35 ± 0.18 | -1.91 ± 0.23 |
| GUUCAGCAAUAUUACGCCUG | -1.97 ± 0.2 | -0.936 ± 0.22 |
| UCUGAGCAAUAUUACGGAUU | -3.51 ± 0.26 | -1.72 ± 0.23 |
| GGGGAGCAAUAUUACGCCAU |  | -1.58 ± 0.32 |

| Sequence | self-splicing fitness (ln) (30 °C) | self-splicing fitness (ln) (37 °C) |
| --- | --- | --- |
| GAAAAGCAAUAUUACGCUAC | -2.67 ± 0.27 | -2.37 ± 0.29 |
| UGCCAGCAAUAUUACGCCAC |  | -2.54 ± 0.29 |
| GCUCAGCAAUAUUACGUGCA | -1.12 ± 0.097 | -0.787 ± 0.1 |
| GCUUAGCAAUAUUACGCAAC | -2.43 ± 0.22 | -0.318 ± 0.13 |
| AGUUAGCAAUAUUACGGGUG | -3.86 ± 0.25 | -1.64 ± 0.21 |
| UUGCAGCAAUAUUACGUCUU | -0.0818 ± 0.069 | 0.289 ± 0.077 |
| AGGCAGCAAUAUUACGGGUU | -3.33 ± 0.22 | -1.01 ± 0.12 |
| AUUAAGCAAUAUUACGAGCA | -0.83 ± 0.15 | -0.726 ± 0.18 |
| CAGGAGCAAUAUUACGAUUU | -3.81 ± 0.28 | -0.961 ± 0.13 |
| UAUUAGCAAUAUUACGAACG | -0.156 ± 0.12 | 0.194 ± 0.14 |
| UGCCAGCAAUAUUACGAGCU | -1.17 ± 0.075 | -0.631 ± 0.098 |
| GAAAAGCAAUAUUACGAGGU | -3.97 ± 0.14 | -2.92 ± 0.13 |
| UUACAGCAAUAUUACGCGUC | -3.64 ± 0.2 | -1.32 ± 0.19 |
| GACAAGCAAUAUUACGACGU | -0.139 ± 0.065 | -0.167 ± 0.074 |
| GAGGAGCAAUAUUACGACGU | -1.37 ± 0.13 | -0.0936 ± 0.15 |
| GACCAGCAAUAUUACGCAUU | -0.15 ± 0.053 | 0.0155 ± 0.067 |
| GUACAGCAAUAUUACGCGGC | -1.83 ± 0.34 | -2.11 ± 0.36 |
| GACGAGCAAUAUUACGUUAG | -3.02 ± 0.17 | -2.56 ± 0.19 |
| AGCGAGCAAUAUUACGUUGA |  | -2.11 ± 0.16 |
| UCAAAGCAAUAUUACGCUGC | -3.2 ± 0.43 | -2.49 ± 0.33 |
| CCAUAGCAAUAUUACGCUAA | -3.38 ± 0.22 | -2.75 ± 0.32 |
| AAUCAGCAAUAUUACGGCGG | -1.05 ± 0.1 | 0.206 ± 0.14 |
| CCGCAGCAAUAUUACGGUAC | -3.8 ± 0.17 | -2.8 ± 0.2 |
| UGCGAGCAAUAUUACGUCAA |  | -0.906 ± 0.35 |
| CGGUAGCAAUAUUACGACUA | -0.298 ± 0.14 | 0.0316 ± 0.16 |
